Laboratory results taken from PMC11480844.

B1: H2-Kb / B14 (parent)
chain 1: GEQVEQRPPHLSVREGDSAVIICTYTDPNSYYFFWYKQEPGAGLQLLMKVFSSTEINEGQGFTVLLNKKDKQLSLNLTAAHPGDSAVYFCAVSARGNMGYKLTFGTGTSLLVDP
chain 2: GGIITQTPKFLIGQEGQKLTLKCQQNFNHDTMYWYRQDSGKGLRLIYYSITENDLQKGDLSEGYDASREKKSSFSLTVTSAQKNEMAVFLCASSMGQGASDYTFGSGTRLLVI
chain 3: not shown
chain 4: IQKTPQIQVYSRHPPENGKPNILNCYVTQFHPPHIEIQMLKNGKKIPKVEMSDMSFSKDWSFYILAHTEFTPTETDTYACRVKHDSMAEPKTVYWDRDM
chain 5: SIINFEKL
B2: H2-Kb / B2 (parent)
chain 1: GEQVEQRPPHLSVREGDSAVIICTYTDPNSYYFFWYKQEPGAGLQLLMKVFSSTEINEGQGFTVLLNKKDKQLSLNLTAAHPGDSAVYFCAVSQMSNYNVLYFGSGTKLTVEP
chain 2: EAAVTQSPRNKVAVTGGKVTLSCNQTNNHNNMYWYRQDTGHGLRLIHYSYGAGSTEKGDIPDGYKASRPSQENFSLILELATPSQTSVYFCASGTGGSGQLYFGEGSKLTVL
chain 3: not shown
chain 4: B1 chain 4
chain 5: SIINFEKL

Variants of: B1
Assay: % of reporter cells activated (NFAT-GFP), raw
Settings: with B14; scale: % of reporter cells activated
Note: test concentration or dose not given here.

Ratio to parent: each site, then its substitutions
chain 5 N4: G 0.644, A 1.32, F 1.51, E 1.33, D 1.23, C 0.916
chain 5 F5: I 0.831, A 1.33, E 1.08, H 0.96, Q 0.582, P 0.791, L 1.11, D 1.32, Y 0.578, T 0.609, M 0.893, K 0.636, S 1.56, R 1.33, G 1.07, N 1.1, V 1.17, C 1.96, W 0.724
chain 5 L8: N 1.16, D 1.24, M 0.773, V 0, K 1.24, A 0.609, W 1.11, C 1.41, Y 1.07, T 1.38, I 1.51, Q 1.24, H 2.84, F 0.44, R 0.978, E 0.516, G 1.38, S 0.716, P 1.33
chain 5 I3: K 1.34, R 0.858, F 1, L 1.33, M 0.84, T 1.47, Q 1.69, H 1.78, G 1.38, E 1.28, D 1.46, W 1.11, Y 1.28, P 2, C 1.96, N 0.978, A 1.33, S 1.6, V 1.6
chain 5 K7: H 0.796, F 1.42, E 0.622, L 1.56, P 1.64, W 1.26, M 0.787, S 1.09, T 1.73, Y 1.69, R 0.667, Q 1.23, G 0.489, I 0.96, D 0.791, A 0.907, N 0.707, V 1.11, C 4.53
chain 5 E6: Y 0.853, N 1.07, D 0.618, V 1.69, T 1.41, F 1.47, W 1.2, S 0.751, P 0.867, K 0.707, H 0.853, L 0.622, I 0.729, C 1.16, G 1.08, Q 0.876, M 0.822, R 0.373, A 0.418
chain 5 I2: P 2.36, T 1.16, Y 0.88, C 0.933, D 1.47, L 1.73, W 0.933, V 0.52, G 0.907, H 0.667, M 1.4, R 1.87, S 1.08, F 0.849, E 0.964, A 0.778, Q 1.07, N 1, K 1.04

Variants of: B2
Assay: % of reporter cells activated (NFAT-GFP), raw
Settings: with B2; scale: % of reporter cells activated

Ratio to parent of substitutions, site by site:
chain 5 S1: H 1.74, N 0.465, Q 1.77, W 8.98, D 2.9, V 8.24, E 0.768, M 5.85, I 10.3, C 0.773, P 6.59, Y 6.51, T 1.02, R 5.53, K 2.57, G 4.72, L 7.3, F 4.16, A 3.1
chain 5 L8: R 0.773, W 2.09, N 0.897, P 3.65, Q 2.52, T 1.29, Y 1.03, V 0.211, S 1.08
chain 5 N4: Y 0.481, F 0.557, G 0.335, K 0.362, A 0.432, D 0.541, R 0.324, P 0.503, M 0.535, W 0.449, L 0.503, I 0.557, E 0.416, H 0.584, Q 0.259, V 0.281, S 0.422, T 0.373, C 0.162
